The values below are quoted from earlier work in US7141590B2, “Pharmaceutical uses and synthesis of nicotinanilide-N-oxides” (UCB SA, priority 2000, dated 2006).

Where only a bound is given, the exact number is not on record here.

The term IC50 denotes the concentration that inhibits the measured activity by half. By Ki is commonly meant the dissociation constant of the complex between target and ligand, obtained from inhibition or displacement.

The target of data set [1] is T1, human CXCR2 (IL8RB) chemokine receptor (Homo sapiens, UniProt P25025).
T1 construct: host or cells: CHO cells
T1 sequence (P25025 1-360): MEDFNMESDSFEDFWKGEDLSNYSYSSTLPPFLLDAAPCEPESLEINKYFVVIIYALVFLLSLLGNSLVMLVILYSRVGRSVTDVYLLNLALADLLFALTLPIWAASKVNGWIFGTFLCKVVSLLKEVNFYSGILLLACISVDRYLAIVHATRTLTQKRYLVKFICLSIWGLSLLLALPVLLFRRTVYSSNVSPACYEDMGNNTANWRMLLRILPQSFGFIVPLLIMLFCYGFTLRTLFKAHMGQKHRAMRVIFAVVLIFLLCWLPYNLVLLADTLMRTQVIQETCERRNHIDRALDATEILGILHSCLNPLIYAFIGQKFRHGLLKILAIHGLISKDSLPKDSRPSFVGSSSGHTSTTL
As to conditions: CXCR2 reference data; cited from earlier work.

For data set [2], the target named is T2, human CXCR1 (IL8RA) chemokine receptor (Homo sapiens, UniProt P25024).
T2 construct: host or cells: CHO cells
T2 sequence (P25024 1-350): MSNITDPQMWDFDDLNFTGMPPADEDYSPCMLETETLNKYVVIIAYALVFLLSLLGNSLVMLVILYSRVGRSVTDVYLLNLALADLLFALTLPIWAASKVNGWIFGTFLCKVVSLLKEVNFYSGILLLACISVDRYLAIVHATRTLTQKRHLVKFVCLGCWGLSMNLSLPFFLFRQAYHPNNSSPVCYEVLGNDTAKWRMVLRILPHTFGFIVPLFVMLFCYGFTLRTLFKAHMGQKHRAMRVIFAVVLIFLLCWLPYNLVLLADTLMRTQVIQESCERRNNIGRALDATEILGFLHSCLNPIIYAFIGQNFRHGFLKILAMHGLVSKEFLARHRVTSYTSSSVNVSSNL
As to conditions: CXCR1 reference data; cited from earlier work.

B1: NAP-2: Neutrophil Activating Peptide-2 (protein, UniProt P02775 59-128, looked up)
Neutrophil-activating peptide …: AELRCMCIKTTSGIHPKNIQSLEVIGKGTHCNQVEVIATLKDGRKICLDPDAPRIKKIVQKKLAGDESAD
modifications: Neutrophil-activating peptide 2
Turning to B1, in data set [1], the IC50 was 3.1 nM, the Ki is 2.2 nM and the nH was 0.6. In data set [2], the IC50 was greater than 10000 nM.
